Blank lines part the entries; values can stand above or below the binder they belong to.
Experiments:
[1] = target: T1, mouse IL-36R (mouse, UniProt Q9ERS7 22-338); test: BLI (Fortebio Octet), antibody injected over antigen surface
T1 sequence (looked up): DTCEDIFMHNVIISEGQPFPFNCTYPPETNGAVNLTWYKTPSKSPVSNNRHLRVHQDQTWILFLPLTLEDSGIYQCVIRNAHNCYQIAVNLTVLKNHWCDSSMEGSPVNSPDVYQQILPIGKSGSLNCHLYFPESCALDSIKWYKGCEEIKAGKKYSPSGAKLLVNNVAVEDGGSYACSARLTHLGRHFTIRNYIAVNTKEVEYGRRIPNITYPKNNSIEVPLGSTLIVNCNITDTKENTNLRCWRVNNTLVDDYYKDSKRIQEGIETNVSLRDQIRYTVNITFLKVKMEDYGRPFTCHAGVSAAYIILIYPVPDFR
Procedure: (§1) B) Molecular selectivity over mouse IL-36R and human IL-1R1 The mouse and chimeric anti-IL-36R antibodies were also injected over either a mouse IL-36R or a human IL-1R1 surface at a concentration of 100 nM. The binding signal to mouse IL-36R and to human IL-1R1 for these antibodies measured using the Fortebio Octet (Fortebio, Menlo Park, Calif.) is zero, which indicates these antibodies selectively bind to human IL-36R.

[2] = target: T2, human IL-1R1 (human, UniProt P14778 18-336, limits assumed); test: as above
T2 construct: also called IL-1RI
T2 sequence (looked up): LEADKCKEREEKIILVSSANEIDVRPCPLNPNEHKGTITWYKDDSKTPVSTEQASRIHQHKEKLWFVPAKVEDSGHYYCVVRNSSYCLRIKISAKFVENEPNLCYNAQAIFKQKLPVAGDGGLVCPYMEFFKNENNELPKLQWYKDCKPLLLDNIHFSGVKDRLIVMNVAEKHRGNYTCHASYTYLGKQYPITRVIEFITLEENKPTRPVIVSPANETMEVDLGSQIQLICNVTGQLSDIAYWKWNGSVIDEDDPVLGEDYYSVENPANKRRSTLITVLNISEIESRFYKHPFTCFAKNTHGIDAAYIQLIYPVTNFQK
Procedure: as §1

[3] = target: T3, human IL-36R on cells (human, UniProt Q9HB29 20-575); test: cell-based or functional assay
T3 sequence (looked up): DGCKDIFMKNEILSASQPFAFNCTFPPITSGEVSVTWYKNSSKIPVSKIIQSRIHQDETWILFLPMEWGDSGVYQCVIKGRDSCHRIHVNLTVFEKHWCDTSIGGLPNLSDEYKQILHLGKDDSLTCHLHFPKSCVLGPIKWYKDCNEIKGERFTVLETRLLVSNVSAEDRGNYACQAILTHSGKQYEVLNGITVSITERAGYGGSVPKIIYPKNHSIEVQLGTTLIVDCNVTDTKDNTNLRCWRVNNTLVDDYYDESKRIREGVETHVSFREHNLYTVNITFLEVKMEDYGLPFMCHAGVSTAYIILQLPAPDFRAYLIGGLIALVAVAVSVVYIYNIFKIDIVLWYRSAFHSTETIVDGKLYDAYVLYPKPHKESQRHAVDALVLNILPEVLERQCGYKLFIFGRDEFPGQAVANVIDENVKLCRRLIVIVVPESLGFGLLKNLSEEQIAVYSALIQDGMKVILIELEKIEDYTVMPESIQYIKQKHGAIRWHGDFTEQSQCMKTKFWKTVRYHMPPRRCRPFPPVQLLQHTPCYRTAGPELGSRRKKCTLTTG

[4] = target: cynomolgus IL-36R on BaF/3 cells (cynomolgus, UniProt A0A2K5WSK9 20-558); test: cell-based or functional assay
[5] = target: T4, recombinant human IL-36R (ECD) (human, UniProt Q9HB29 20-332); test: SPR (ProteOn), recombinant human IL-36R at 7 surface densities, global fit
T4 construct: range 20-332; also called IL-1RL2; IL-1Rrp2
T4 sequence (looked up): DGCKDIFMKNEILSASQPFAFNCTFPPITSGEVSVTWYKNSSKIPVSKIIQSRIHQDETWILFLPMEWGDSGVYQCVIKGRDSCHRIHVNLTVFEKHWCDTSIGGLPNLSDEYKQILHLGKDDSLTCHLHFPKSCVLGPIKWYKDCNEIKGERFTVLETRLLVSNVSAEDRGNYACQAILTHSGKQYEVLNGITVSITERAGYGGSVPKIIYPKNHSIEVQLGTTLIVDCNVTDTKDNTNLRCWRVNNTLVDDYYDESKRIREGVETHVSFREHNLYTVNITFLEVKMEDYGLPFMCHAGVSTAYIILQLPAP
Procedure: A) Kinetics and binding affinities of anti-IL-36R antibodies binding to recombinant human IL-36R were measured using the Proteon (Bio-Rad, Hercules, Calif.) using material generated from hybridoma following single column purification. […] The binding affinities of the mouse antibodies to human IL-36R run at 7 different surface densities (globally fit) is shown in Table 1. Binding of the chimeric anti-IL36R IgGs is equivalent to the respective mouse leads.

[6] = target: T4, recombinant human IL-36R (ECD); test: SPR (ProteOn), single IL-36R surface coat concentration
Procedure: A) Kinetics and binding affinities of anti-IL-36R antibodies binding to recombinant human IL-36R were measured using the Proteon (Bio-Rad, Hercules, Calif.) using material generated from hybridoma following single column purification. […] Binding of the chimeric anti-IL36R IgGs is equivalent to the respective mouse leads.

[7] = target: T3, human IL-36R on cells; test: flow cytometry, HEK293 cells transfected with full-length human IL-36R
Procedure: HEK293 cells transfected with full-length human IL-36R or NCI/ADR-RES cells were passaged for 24 hours prior to staining. Cells were removed from flasks by rinsing with 10 ml of 5 mM EDTA in PBS, and then incubated at 37° C. for 10 min with an additional 10 ml of 5 mM EDTA and 2.5 ml of Accumax to declump/disperse cells. Antibodies were then diluted to specified concentrations in PBS+2% BSA, and cells incubated for 20 min at room temperature. Excess antibody was then washed by adding 200 μl of PBS and then centrifuged. Secondary reagent was then added at 50 μl per well and cells are incubated for 15 min at room temperature and then washed as above. Cells were resuspended in 200 μl PBS and analyzed by flow cytometry.

[8] = target: T3, human IL-36R on cells; test: cell-based or functional assay; remark: listed apart in the source

Sequence of cynomolgus IL-36R on BaF/3 cells (A0A2K5WSK9 entry or part of it): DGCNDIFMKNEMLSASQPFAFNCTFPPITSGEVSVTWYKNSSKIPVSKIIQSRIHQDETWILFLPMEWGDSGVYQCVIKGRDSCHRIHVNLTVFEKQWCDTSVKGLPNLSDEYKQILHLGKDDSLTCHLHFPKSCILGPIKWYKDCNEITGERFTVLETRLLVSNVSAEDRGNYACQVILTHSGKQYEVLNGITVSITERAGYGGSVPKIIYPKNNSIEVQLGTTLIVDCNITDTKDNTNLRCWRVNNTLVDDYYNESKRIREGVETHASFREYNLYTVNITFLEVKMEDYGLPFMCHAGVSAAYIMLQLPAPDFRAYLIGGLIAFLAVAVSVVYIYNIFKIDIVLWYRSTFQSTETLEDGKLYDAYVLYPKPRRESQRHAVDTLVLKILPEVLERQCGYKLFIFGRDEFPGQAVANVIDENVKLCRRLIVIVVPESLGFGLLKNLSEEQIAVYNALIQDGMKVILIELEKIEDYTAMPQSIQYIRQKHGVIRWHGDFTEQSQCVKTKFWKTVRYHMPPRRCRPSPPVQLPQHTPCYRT

- binding result [1]: no binding (tested: 100 nM)
- binding result [2]: no binding (tested: 100 nM)
- IC90, GM-CSF release, NCI/ADR-RES cells, trun-IL-36a [3]: 1.2 nM
- IC90, GM-CSF release, NCI/ADR-RES cells, trun-IL-36b [3]: 1.2 nM
- IC90, GM-CSF release, NCI/ADR-RES cells, trun-IL-36g [3]: 0.7 nM
- IC90, IL-6 release, NCI/ADR-RES cells, trun-IL-36a [3]: 17 nM
- IC90, IL-6 release, NCI/ADR-RES cells, trun-IL-36b [3]: 5.3 nM
- IC90, IL-6 release, NCI/ADR-RES cells, trun-IL-36g [3]: 0.8 nM
- IC90, IL-8 release, NCI/ADR-RES cells, trun-IL-36a [3]: 1.9 nM
- IC90, IL-8 release, NCI/ADR-RES cells, trun-IL-36b [3]: 0.5 nM
- IC90, IL-8 release, NCI/ADR-RES cells, trun-IL-36g [3]: 0.5 nM
- IC90, pNFκB, NCI/ADR-RES cells, trun-IL-36a [3]: 2.7 nM
- IC90, pNFκB, NCI/ADR-RES cells, trun-IL-36b [3]: 4.2 nM
- IC90, pNFκB, NCI/ADR-RES cells, trun-IL-36g [3]: 2.2 nM
- IC90, pNFκB, BaF/3 cynomolgus IL-36R cells, trun-IL-36a [4]: 0.6 nM
- IC90, pNFκB, BaF/3 cynomolgus IL-36R cells, trun-IL-36b [4]: 0.9 nM
- IC90, pNFκB, BaF/3 cynomolgus IL-36R cells, trun-IL-36g [4]: 1 nM
- Kd [5]: 0.016 nM
- Kd [6]: < 0.1 nM
- EC50 [7]: 0.28 nM
B1: antibody 81A1 (antibody, V domains shown)
VH: QVQLKESGPGLVAPSQSLFITCTVSGFSLSSYEINWVRQVPGKGLEWLGVIWTGITTNYNSALISRLSISKDNSKSLVFLKMNSLQTDDTAIYYCARGTGTGFYYAMDYWGQGTSVTVSS
VL: DIQMTQTTSSLSASLGDRVTISCRASQDIYKYLNWYQQKPDGTLKLLIYYTSGLHSGVPSRFSGSGSGTDFSLTISNLEPEDIATYFCQQDSKFPWTFGGDTKLEIK
notes: Mouse monoclonal from hybridoma; also called 81A1D1; Mouse 81A1

- binding result [1]: no binding (tested: 100 nM)
- binding result [2]: no binding (tested: 100 nM)
- IC90, IL-8 release, human primary keratinocytes (NHK), trun-IL-36a [8]: 1.5 nM
- IC90, IL-8 release, human primary keratinocytes (NHK), trun-IL-36b [8]: 3 nM
- IC90, IL-8 release, human primary keratinocytes (NHK), trun-IL-36g [8]: 0.8 nM
- IC90, pNFκB, human primary keratinocytes (NHK), trun-IL-36a [8]: 1.8 nM
- IC90, pNFκB, human primary keratinocytes (NHK), trun-IL-36b [8]: 2.3 nM
- IC90, pNFκB, human primary keratinocytes (NHK), trun-IL-36g [8]: 0.8 nM
- IC90, GM-CSF release, NCI/ADR-RES cells, trun-IL-36a [3]: 0.8 nM
- IC90, GM-CSF release, NCI/ADR-RES cells, trun-IL-36b [3]: 0.6 nM
- IC90, GM-CSF release, NCI/ADR-RES cells, trun-IL-36g [3]: 0.5 nM
- IC90, IL-6 release, NCI/ADR-RES cells, trun-IL-36a [3]: 0.8 nM
- IC90, IL-6 release, NCI/ADR-RES cells, trun-IL-36b [3]: 0.5 nM
- IC90, IL-6 release, NCI/ADR-RES cells, trun-IL-36g [3]: 0.3 nM
- IC90, IL-8 release, NCI/ADR-RES cells, trun-IL-36a [3]: 0.6 nM
- IC90, IL-8 release, NCI/ADR-RES cells, trun-IL-36b [3]: 0.6 nM
- IC90, IL-8 release, NCI/ADR-RES cells, trun-IL-36g [3]: 0.5 nM
- IC90, pNFκB, NCI/ADR-RES cells, trun-IL-36a [3]: 1.7 nM
- IC90, pNFκB, NCI/ADR-RES cells, trun-IL-36b [3]: 1.3 nM
- IC90, pNFκB, NCI/ADR-RES cells, trun-IL-36g [3]: 1.1 nM
- IC90, pNFκB, BaF/3 cynomolgus IL-36R cells, trun-IL-36a [4]: > 4 µM
- IC90, pNFκB, BaF/3 cynomolgus IL-36R cells, trun-IL-36b [4]: > 333 nM
- IC90, pNFκB, BaF/3 cynomolgus IL-36R cells, trun-IL-36g [4]: > 333 nM
- Kd [5]: 0.009 nM
- Kd [6]: < 0.1 nM
- EC50 [7]: 0.475 nM
B2: antibody 33D10 (antibody, V domains shown)
VH: QVQLQQSGTELLKPGASVKLSCKASGNTVTSYWMHWVKQRPGQGLEWIGEILPSTGRTNYNENFKGKAMLTVDKSSSTAYMQLSSLASEDSAVYYCTIVYFGNPWFAYWGQGTLVTVSA
VL: QIVLTQSPAIMSASLGERVTMTCTASSSVSSSYLHWYQKKPGSSPKLWVYSTSNLASGVPVRFSGSGSGTSYSLTISSMEAEDAATYYCHQHHRSPVTFGSGTKLEMK
notes: Mouse monoclonal from hybridoma; also called 33D10B12; Mouse 33D10

- binding result [1]: no binding (tested: 100 nM)
- binding result [2]: no binding (tested: 100 nM)
- IC90, IL-8 release, human primary keratinocytes (NHK), trun-IL-36a [8]: 20.8 nM
- IC90, IL-8 release, human primary keratinocytes (NHK), trun-IL-36b [8]: 46 nM
- IC90, IL-8 release, human primary keratinocytes (NHK), trun-IL-36g [8]: 2.4 nM
- IC90, pNFκB, human primary keratinocytes (NHK), trun-IL-36a [8]: 10.7 nM
- IC90, pNFκB, human primary keratinocytes (NHK), trun-IL-36b [8]: 14.4 nM
- IC90, pNFκB, human primary keratinocytes (NHK), trun-IL-36g [8]: 1.7 nM
- IC90, GM-CSF release, NCI/ADR-RES cells, trun-IL-36a [3]: 4.8 nM
- IC90, GM-CSF release, NCI/ADR-RES cells, trun-IL-36b [3]: 1.4 nM
- IC90, GM-CSF release, NCI/ADR-RES cells, trun-IL-36g [3]: 2 nM
- IC90, IL-6 release, NCI/ADR-RES cells, trun-IL-36a [3]: 19 nM
- IC90, IL-6 release, NCI/ADR-RES cells, trun-IL-36b [3]: 3.8 nM
- IC90, IL-6 release, NCI/ADR-RES cells, trun-IL-36g [3]: 1.9 nM
- IC90, IL-8 release, NCI/ADR-RES cells, trun-IL-36a [3]: 3.3 nM
- IC90, IL-8 release, NCI/ADR-RES cells, trun-IL-36b [3]: 0.6 nM
- IC90, IL-8 release, NCI/ADR-RES cells, trun-IL-36g [3]: 1.4 nM
- IC90, pNFκB, NCI/ADR-RES cells, trun-IL-36a [3]: 3.4 nM
- IC90, pNFκB, NCI/ADR-RES cells, trun-IL-36b [3]: 3.4 nM
- IC90, pNFκB, NCI/ADR-RES cells, trun-IL-36g [3]: 2.5 nM
- IC90, pNFκB, BaF/3 cynomolgus IL-36R cells, trun-IL-36a [4]: 0.2 nM
- IC90, pNFκB, BaF/3 cynomolgus IL-36R cells, trun-IL-36b [4]: 1.6 nM
- IC90, pNFκB, BaF/3 cynomolgus IL-36R cells, trun-IL-36g [4]: 1.5 nM
- Kd [5]: 0.057 nM
- Kd [6]: < 0.1 nM
B3: antibody 73C5 (antibody, V domains shown)
VH: QVQLKESGPGLVAPSQSLSITCTVSGFSLTNYAVHWVRQFPGKGLEWLGVIWSDGSTDFNAPFKSRLSINKDNSKSQVFFKMNSLQIDDTAIYYCARKGGYSGSWFAYWGQGTLVTVSA
VL: DIVMTQSQKFLSTSVGVRVSVTCKASQDVGTNVLWYQQKIGQSPKPLIYSASYRHSGVPDRFTGSGSGTDFTLIISNVQSEDLAEYFCQQYSRYPLTFGPGTKLELK
notes: Mouse monoclonal from hybridoma; also called 73C5C10; Mouse 73C5

Reference: patent US20200231684A1 (published 2020)
